The text below walks through data of publication doi:10.1101/439331.

Assay [1] addresses SCARECROW (SCR)-mCherry translational fusion (SCR:SCR-mCherry) (Arabidopsis) (UniProt Q9M384). As to the kind of experiment: Cross-Correlation Number and Brightness.
Assay [2] has the same target. As to the kind of experiment: Cross-Correlation Number and Brightness. This is another data set of the same source.
In assay [3] the target is SHORTROOT (SHR)-GFP translational fusion (SHR:SHR-GFP) (Arabidopsis) (UniProt Q9SZF7). As to the kind of experiment: Number and Brightness.
For assay [4], the target named is T1, SCARECROW (SCR)-GFP translational fusion (SCR:SCR-GFP) (Arabidopsis), Q9M384.
T1 chain: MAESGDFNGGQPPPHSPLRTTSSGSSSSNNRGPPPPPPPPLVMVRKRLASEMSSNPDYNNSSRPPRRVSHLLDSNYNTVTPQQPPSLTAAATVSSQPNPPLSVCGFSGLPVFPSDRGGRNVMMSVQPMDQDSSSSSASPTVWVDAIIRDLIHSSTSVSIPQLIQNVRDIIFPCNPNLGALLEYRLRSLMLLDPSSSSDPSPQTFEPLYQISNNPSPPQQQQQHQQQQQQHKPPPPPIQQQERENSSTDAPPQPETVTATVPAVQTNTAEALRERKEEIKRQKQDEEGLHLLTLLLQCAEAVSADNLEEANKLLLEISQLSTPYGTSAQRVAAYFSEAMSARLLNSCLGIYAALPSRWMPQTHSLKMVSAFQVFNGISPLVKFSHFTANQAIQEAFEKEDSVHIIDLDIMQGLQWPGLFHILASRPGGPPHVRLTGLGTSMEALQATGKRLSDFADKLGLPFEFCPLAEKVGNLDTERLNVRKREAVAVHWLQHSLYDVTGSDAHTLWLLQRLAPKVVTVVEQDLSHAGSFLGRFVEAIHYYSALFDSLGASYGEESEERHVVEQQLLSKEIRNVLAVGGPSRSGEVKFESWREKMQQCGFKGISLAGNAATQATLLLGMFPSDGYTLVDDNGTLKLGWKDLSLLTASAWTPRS
As to the kind of experiment: Number and Brightness. The conditions noted are these: remark: other sources report otherwise.

Assay [5] concerns the target T1, SCARECROW (SCR)-GFP translational …. As to the kind of experiment: Number and Brightness. Conditions: remark: other sources report otherwise.

Like-named read-outs stand apart in the source and are kept apart here.

Regarding “SHORTROOT (SHR)-GFP translational fusion (SHR:SHR-GFP) (from UniProt Q9SZF7 1-531) (natural protein)”, in assay [1], the binding score of the 2 SHR: 2 SCR complex was determined as 1, the percent of SHR-SCR complexes that are 1 SHR: 1 SCR was greater than 90%, the percent of SHR-SCR complexes that are 1 SHR: 2 SCR was less than 5% and the percent of SHR-SCR complexes that are 2 SHR: 1 SCR was determined as 7%. Besides, in assay [1], the percent of SHR-SCR complexes that are 2 SHR: 2 SCR is less than 1%. Also, in assay [2], the percent of SHR-SCR complexes that are 1 SHR: 1 SCR is greater than 90% and the percent of SHR-SCR complexes that are 1 SHR: 2 SCR is 7%.

B1: SHORTROOT (SHR)-GFP translational fusion (SHR:SHR-GFP) (natural protein)
chain: MDTLFRLVSLQQQQQSDSIITNQSSLSRTSTTTTGSPQTAYHYNFPQNDVVEECFNFFMDEEDLSSSSSHHNHHNHNNPNTYYSPFTTPTQYHPATSSTPSSTAAAAALASPYSSSGHHNDPSAFSIPQTPPSFDFSANAKWADSVLLEAARAFSDKDTARAQQILWTLNELSSPYGDTEQKLASYFLQALFNRMTGSGERCYRTMVTAAATEKTCSFESTRKTVLKFQEVSPWATFGHVAANGAILEAVDGEAKIHIVDISSTFCTQWPTLLEALATRSDDTPHLRLTTVVVANKFVNDQTASHRMMKEIGNRMEKFARLMGVPFKFNIIHHVGDLSEFDLNELDVKPDEVLAINCVGAMHGIASRGSPRDAVISSFRRLRPRIVTVVEEEADLVGEEEGGFDDEFLRGFGECLRWFRVCFESWEESFPRTSNERLMLERAAGRAIVDLVACEPSDSTERRETARKWSRRMRNSGFGAVGYSDEVADDVRALLRRYKEGVWSMVQCPDAAGIFLCWRDQPVVWASAWRPT
On to B1, for which, in assay [3], the percent homodimer without m4 (scr4 mutant) is less than 1%.

B2: SCARECROW (SCR)-GFP translational fusion (SCR:SCR-GFP), Q9M384 1-653 (natural protein)
chain: T1 chain
The molecule B2 returned a percent homodimer in assay [4] of 6.6%. In assay [5], the percent homodimer was 17.3% and the stoichiometry N came out at 2.
